Results from patent publication US20240425571A1, “GLYCOPROTEIN A REPETITIONS PREDOMINANT (GARP)-BINDING ANTIBODIES AND USES THEREOF” (OHIO STATE INNOVATION FOUNDATION, priority 2021, published 2024).

Experiments:
[1] = Aggregation potential by DLS analysis; type: physicochemical
Protocol: Aggregation potential by DLS analysis. DLS was performed on UNcle system (Unchained Labs). DLS was measured at 25° C. Data was calculated and analyzed using UNcle Analysis Software. DLS: Dynamic light scattering PDI: Polydispersity index, PDI=(standard deviation/mean hydrodynamic radius).
Dynamic Light Scattering (DLS) is used to detect aggregation in the antibody sample. “Mode diameter” is protein particle diameter and “mass percentage” is the amount of each size fraction in percentage. “PDI” is Polydispersity Index; the higher this index, the more polydispersity in the sample is. […] Peak 1 is the major peak and represents the IgG monomer. The inventor takes “Peak 1 mass percentage” and “PDI” value into consideration in selecting a lead.

[2] = Thermostability by DSF/SLS (UNcle); type: physicochemical
Protocol: Developability Analysis for PIIO-1 humanization leads. Antibodies were analyzed for thermostability by DSF/SLS. Samples were submitted to the UNcle system (Unchained Labs) for analysis. A temperature ramp of 1° C./min was performed with monitoring from 20° C. to 95° C. for DSF and SLS. UNcle measures SLS at 266 nm and 473 nm. Tm and Tagg were calculated and analyzed by using the UNcle Analysis Software. DSF: Differential scanning fluorimetry; SLS: Static light scattering; Tm: Melting temperature; Tagg 266: Thermal aggregation when SLS at 266 nm; Tagg 473: Thermal aggregation when SLS at 473 nm. A summary is shown below in Table F:
IgG is a multi-domain structure and each domain has its own melting Temperature (Tm). […] Fabs have Tm in a wide range, generally about 50-85° C., due to large sequence variation. Therefore, the Tm values measured by various analytical techniques are usually “apparent” transition temperatures rather than the real Tm for each domain. In the case of whole IgG, there are often 2-3 Tm values in DSF measurement, presenting some challenge in determining which Tm represents which domain.
Tagg is the temperature at which SLS starts to detect aggregation particles. Tagg266 measures SLS at 266 nm, which is more sensitive and suitable to detect smaller aggregation particles. Tagg473 measures SLS at 473 nm and is better to detect larger particles.

[3] = Reducing CE-SDS (heterogeneity); type: physicochemical
Protocol: (§1) Analysis of the heterogeneity by Capillary Electrophoresis (CE). The sample was prepared in reducing and non-reducing labeling buffer before being submitted to the CE analysis. A summary of the Reducing-CE-SDS and Non-Reducing-CE-SDS results are shown in FIG. 13A/Table H and FIG. 13B/Table I, respectively: […]

Baculovirus = Baculovirus (BV) ELISA for non-specific binding
Protocol: Baculovirus (BV) ELISA was employed as a preliminary assay to evaluate antibody's potential nonspecific binding risk.
In Baculovirus (BV) ELISA, the inventor used Rituxan Mab as reference. […] If a clone only has binding on BV, but not on 293 cells, it will be considered as having a low risk of non-specific binding.
Methods—Baculovirus ELISA. Plates are coated with 50 μl of 1:500 diluted Baculovirus sample in PBS in each well. Plates are kept at 4° C. for overnight. The plates are washed with 300 μL of wash buffer ×3 and 200 μl blocking buffer (1% BSA) is added at RT for 60 min. Plates are washed with 300 μl of wash buffer ×3 and 100 μl of diluted Abs are added at different concentrations/well, followed by RT incubation for 1 hr. Plates are washed with 300 μl of wash buffer ×6 and 100 μl of 1:5000 HRP conjugated second Ab in PBS is added followed by RT incubation for 1 hr. The plates are washed with 300 μl of wash buffer ×6. Developing buffer is added and the plate is read.

Ag(−) cell = assay: FACS analysis with Ag(−) cell (non-specific binding); settings: 5 ug/ml
Protocol: Methods—FACS analysis. Cell preparation: Cell were harvested and washed with PBS+2% FBS for one time. Cell density was adjusted to 1.5E6/mL in PBS/2% FBS. Cell were added to 96 U-bottom well plates at 100 μL/well. Antibody samples preparation: Antibody in supernatant was adjusted to 10 μg/mL using PBS+2% FBS, with serial 5 times dilution performed to obtain 3 concentrations of antibody solution. The blank was PBS+2% FBS. Antibody solutions were placed into 96 U-bottom well plates at 100 μL/well in the same arranging pattern as the cell preparation. Incubation: The antibody samples (100 μl) were mixed with the cells (100 μl), and incubated at RT for 1 h, then centrifuged the plate for 3 min at 1000 rpm (swing bucket). The supernatant was pipetted and the cells were washed with PBS+2% FBS for one time. Incubation with the secondary antibody: Cy3-Conjugated AffiniPure Goat Anti-Human IgG was diluted 250× by PBS+2% FBS, and added to the 96 U-bottom well plate with 100 μl/well, then incubated at RT for 30 min. After that, the plate was centrifuged at 1000 rpm for 3 min and the supernatant was pipetted out. The cell was washed with PBS+2% FBS twice. Cells were re-suspended in 200 μl PBS+2% FBS and analyzed on FACS. The MFI of total live cells were used as binding signal.
Methods—heat treatment. Culture supernatant was serial diluted to the indicated concentration of IgG with cell media and heated at 70° C. for 5 mins on a PCR machine, then quickly cooled down to room temperature.

antigen = biological target: T1, antigen (Homo sapiens, UniProt Q14392); assay: Label-free kinetic binding assay on Gator
T1 sequence (Q14392 20-662): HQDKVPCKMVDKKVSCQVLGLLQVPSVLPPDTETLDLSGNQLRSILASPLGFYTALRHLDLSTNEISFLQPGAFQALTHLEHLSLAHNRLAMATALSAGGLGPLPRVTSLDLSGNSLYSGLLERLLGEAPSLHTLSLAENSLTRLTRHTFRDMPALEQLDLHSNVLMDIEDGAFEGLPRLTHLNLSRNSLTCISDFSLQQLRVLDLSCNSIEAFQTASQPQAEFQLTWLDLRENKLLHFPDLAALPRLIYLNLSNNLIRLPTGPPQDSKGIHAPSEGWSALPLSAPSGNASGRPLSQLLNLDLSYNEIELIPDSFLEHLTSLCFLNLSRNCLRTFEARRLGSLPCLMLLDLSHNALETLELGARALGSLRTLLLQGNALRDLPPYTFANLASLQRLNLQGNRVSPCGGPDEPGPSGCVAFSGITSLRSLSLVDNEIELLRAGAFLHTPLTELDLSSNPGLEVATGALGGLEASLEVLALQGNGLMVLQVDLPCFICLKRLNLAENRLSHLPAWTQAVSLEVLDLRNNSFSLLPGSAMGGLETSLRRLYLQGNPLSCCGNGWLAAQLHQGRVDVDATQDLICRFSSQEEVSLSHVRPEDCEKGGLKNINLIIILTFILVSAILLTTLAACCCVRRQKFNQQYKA
Protocol: Affinity measurement. Label-free kinetic binding assay was performed on Gator (similar to Octet).
Methods. Affinity was measured on Gator (ProbeLife, Palo Alto). In brief, the purified IgG sample was diluted in K buffer at 2 μg/ml, and the antigen was diluted at 5 μg/ml. The antibody-loaded anti-human Fc probes were dipped in antigen wells for 5 mins and then moved to K buffer wells for 5 mins. In the whole process, the sample plate was shaken at 1,000 rpm. The data analysis was carried out using Gator software (ProbeLife).

[4] = Non-reducing CE-SDS (heterogeneity); type: physicochemical
Protocol: as §1

[5] = ramp 1° C./min, 20° C. to 95° C.
[6] = IgG 2 μg/ml on anti-human Fc probes, antigen 5 μg/ml

B1: H1L2: humanized PIIO-1 antibody, VH SEQ ID NO: 20 and VL SEQ ID NO: 24 (antibody, V domains shown)
VH: QVQLQESGPGLVKPSQTLSLTCTVSGYSITSDYAWNWIRQFPGNKLEWMGYISYSGSTSYTPSLKSRVTISRDTSKNHFSLKLSSVTAADTAVYYCAKSGGDYYGSSSYWYFDVWGQGTMVTVSS
VL: DIVLTQSPSSLAVSLGERVTMNCKSSQSLLNSRSQKNYLAWYQQKPGQPPKLLIYGASTRGSGVPDRFSGSGSGTDFTLTISSVQAEDVAVYYCQNDHSYPFTFGQGTKLEIKR
comparison of humanized antibodies by Table G [1]: superior to huPIIO-1VH1VL1 | Peak 1 Mass ([1]; DLS at 25° C.): 99.94% | Peak 1 Mode Diameter ([1]; DLS at 25° C.): 9.68 nm | Peak 1 PDI ([1]; DLS at 25° C.): 0.361 | Peak 2 Mass ([1]; DLS at 25° C.): 0% | PDI compared with WT ([1]; listed as VH1VL2): slightly higher PDI than that of the chimeric clone | thermostability compared with parental 4D3 chimeric antibody (Table F) [2]: superior thermostability over the parental 4D3 chimeric antibody | SLS Tagg 266 ([2]; SLS at 266 nm): 78.8 °C | SLS Tagg 473 ([2]; SLS at 473 nm): 79.3 °C | aggregation risk ([2]; from Tagg266 and Tagg473 in SLS assay): very low aggregation risk | DSF TM2 [2, 5]: 76.7 °C | DSF Tm1 [2, 5]: 70.0 °C | DSF Tm3 [2, 5]: 87.5 °C | homogeneity (Table H) [3]: superior homogeneity versus clone huPIIO-1VH2VL1 | OTHER (%) ([3]; Reducing-CE-SDS): 0.9% | PK#1 (%) ([3]; Reducing-CE-SDS): 1.4% | PK#2 (%) ([3]; Reducing-CE-SDS): 29.1% | PK#3 (%) ([3]; Reducing-CE-SDS): 68.7% | BV ELISA with purified IgG, raw BV binding data (Baculovirus; Ab. Conc. 0.15625 ug/ml): 15.6 | BV ELISA with purified IgG, raw BV binding data (Baculovirus; Ab. Conc. 0.3125 ug/ml): 15.4 | BV ELISA with purified IgG, raw BV binding data (Baculovirus; Ab. Conc. 0.625 ug/ml): 23.5 | BV ELISA with purified IgG, raw BV binding data (Baculovirus; Ab. Conc. 1.25 ug/ml): 26.6 | BV ELISA with purified IgG, raw BV binding data (Baculovirus; Ab. Conc. 2.5 ug/ml): 39.6 | BV ELISA with purified IgG, raw BV binding data (Baculovirus; Ab. Conc. 5 ug/ml): 38.1 | BV ELISA with purified IgG, raw BV binding data (Baculovirus; Ab. Conc. 10 ug/ml): 102.3 | BV ELISA with purified IgG, raw BV binding data (Baculovirus; Ab. Conc. 20 ug/ml): 253.4 | BV-binding in words (Baculovirus; purified antibodies, Rituxan as reference): a bit higher signal | FACS with Ag(−) cell (MFI) (Ag(−) cell; Heating): 3.35 | FACS with Ag(−) cell (MFI) (Ag(−) cell; Non-Heating): 3.24 | KD value compared with the chimeric (antigen): same KD value to the chimeric | Rmax (antigen; [6]): 0.885 | koff (antigen; [6]): 0.000813 | kon (antigen; [6]): 9.98E+04 | Main Peak (%) [4]: 97.6% | OTHER (%) [4]: 2.4%
